{
  "source": "patent US20220363731A1",
  "about": "(LETO LABORATORIES, published 2022)",
  "binders": {"B1": {"name": "IL-2 Mutant 1, IL-2 (M39C, V69C, C125A) (ligand)", "chain": "APTSSSTKKTQLQLEHLLLDLQMILNGINNYKNPKLTRCLTFKFYMPKKATELKHLQCLEEELKPLEECLNLAQSKNFHLRPRDLISNINVIVLELKGSETTFMCEYADETATIVEFLNRWITFAQSIISTLT", "notes": "Designed to form an intramolecular disulfide bond between Cys39 and Cys69; not shown: HPC4 tag at the C-terminus"}, "B2": {"name": "IL-2 Mutant 3, IL-2 (F44C, P65C, C125A) (ligand)", "chain": "B1 chain with C39M, F44C, P65C, C69V", "notes": "Designed to form an intramolecular disulfide bond between Cys44 and Cys65; not shown: HPC4 tag at the C-terminus"}, "B3": {"name": "IL-2 Mutant 2, IL-2 (F44C, E62C, C125A) (ligand)", "chain": "B1 chain with C39M, F44C, E62C, C69V", "notes": "Designed to form an intramolecular disulfide bond between Cys44 and Cys62; not shown: HPC4 tag at the C-terminus"}, "B4": {"name": "IL-2 Mutant 4, IL-2 (F42C, V69C, C125A) (ligand)", "chain": "B1 chain with C39M, F42C", "notes": "Designed to form an intramolecular disulfide bond between Cys42 and Cys69; not shown: HPC4 tag at the C-terminus"}},
  "key": {"[1]": {"biological_target": "T1, IL2Rβγ-Fc (UniProt P14784 27-240; P31785 23-262, limits assumed)", "T1 construct": "From Beijing Zhidao Biotechnology, loaded on ProA sensors; also called IL2Rβγ receptors; complex of β and γ receptor subunits; not shown: Fc", "T1 sequence (looked up) 1": "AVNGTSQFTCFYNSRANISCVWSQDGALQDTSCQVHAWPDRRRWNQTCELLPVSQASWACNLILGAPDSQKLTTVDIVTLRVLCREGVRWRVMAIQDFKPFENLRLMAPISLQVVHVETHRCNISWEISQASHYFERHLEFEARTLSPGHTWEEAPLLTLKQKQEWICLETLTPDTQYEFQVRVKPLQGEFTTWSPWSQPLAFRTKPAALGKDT", "T1 sequence (looked up) 2": "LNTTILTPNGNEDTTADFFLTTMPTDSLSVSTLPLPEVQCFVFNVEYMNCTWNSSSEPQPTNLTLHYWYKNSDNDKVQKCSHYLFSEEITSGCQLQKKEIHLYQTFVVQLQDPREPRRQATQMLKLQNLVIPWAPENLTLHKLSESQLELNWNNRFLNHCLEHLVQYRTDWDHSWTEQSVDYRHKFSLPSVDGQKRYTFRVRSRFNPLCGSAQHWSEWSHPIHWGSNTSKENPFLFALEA", "assay": "BLI (Fortebio Octet RED96), IL2Rβγ-Fc loaded on ProA sensor, analyte 2.5-40 nM as labelled; R2 0.998", "description": "(§1) The buffer formulation was as follows: 10 mM HEPES, 150 mM sodium chloride, 3 mM EDTA, 0.1% BSA and 0.05% Tween 20. The ProA sensor was purchased from Pall Fortebio (Cat. No. #18-5010). The HISIK sensor was purchased from Pall Fortebio (Cat. No. #18-5120). The BLI equipment was Octet RED96 from Pall Fortebio. Data acquisition and analysis were carried out using software Data acquisition 11.0 and Data Analysis 11.0, respectively.\n(§2) IL2Rβγ-Fc was diluted with the buffer solution to a concentration of 10 μg/mL, and then added to column 2 of the 96-well assay plate. The program was set to Loading, 600 s.\n(§3) 8 ProA sensors were respectively placed in A-H of column 1 of the sensor holder. In the software Data acquisition 11.0, the detection conditions were set as follows. 1 Pre-wetting: Baseline, 60 s, Position: Column 1. 2 Cycle detection: column 2: loading, 600 s; column 4: Baseline 1, 60 s; columns 5-9: Association, 200 s; column 10: Dissociation, 600 s; column 11: neutralization; and column 12: regeneration."}, "[2]": {"biological_target": "T1, IL2Rβγ-Fc", "assay": "BLI (Fortebio Octet RED96), IL2Rβγ-Fc loaded on ProA sensor, analyte 2.5-40 nM as labelled; R2 0.9984", "description": "as §1, §2, §3"}, "[3]": {"biological_target": "T1, IL2Rβγ-Fc", "assay": "BLI (Fortebio Octet RED96), IL2Rβγ-Fc loaded on ProA sensor, analyte 1.25-40 nM; R2 0.9953", "description": "as §2\n(§4) They were added to columns 5-9 of the 96-well assay plate, respectively. The program was set to Association, 200 s. The buffers were added to columns 1, 4, 10 and 11 of the 96-well assay plate, and the glycine with pH 1.7 was added to column 12. The loading volume of the above samples or solutions was 200 μL.\nas §3"}, "[4]": {"biological_target": "T2, IL2Rα-his (UniProt P01589 22-217, limits assumed)", "T2 construct": "From Beijing Zhidao Biotechnology, loaded on HIS1K sensors; also called IL2Rα receptor; α receptor subunit; not shown: his tag", "T2 sequence (looked up)": "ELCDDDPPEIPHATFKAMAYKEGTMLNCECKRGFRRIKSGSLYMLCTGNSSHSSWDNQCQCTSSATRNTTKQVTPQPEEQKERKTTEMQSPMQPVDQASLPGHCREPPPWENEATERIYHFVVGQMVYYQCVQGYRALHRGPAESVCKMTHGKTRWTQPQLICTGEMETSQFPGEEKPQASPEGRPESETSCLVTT", "assay": "BLI (Fortebio Octet RED96), IL2Rα-his loaded on HIS1K sensor, analyte at 100 nM", "description": "as §1\nIL2Rα-his was diluted with the buffer solution to a concentration of 10 μg/mL, and then added to column 3 of the 96-well assay plate. The program was set to Loading, 600 s."}, "[5]": {"biological_target": "T1, IL2Rβγ-Fc", "assay": "BLI (Fortebio Octet RED96), IL2Rβγ-Fc loaded on ProA sensor, analyte 1.25-40 nM; R2 0.9972", "description": "as §2, §4, §3"}},
  "note": "Positions count from the first letter of the chain named. In names and notes the source's numbering stands.",
  "data": [
    {"binder": "B1", "values": [
      {"measurement": "Kd", "setting": "[1]", "result": 0.56, "unit": "nM"}
    ]},
    {"binder": "B2", "values": [
      {"measurement": "Kd", "setting": "[2]", "result": 0.66, "unit": "nM"}
    ]},
    {"binder": "B3", "values": [
      {"measurement": "Kd", "setting": "[3]", "result": 0.675, "unit": "nM"},
      {"measurement": "binding result", "setting": "[4]", "result": "no binding (tested: 100 nM)"}
    ]},
    {"binder": "B4", "values": [
      {"measurement": "Kd", "setting": "[5]", "result": 0.268, "unit": "nM"},
      {"measurement": "binding result", "setting": "[4]", "result": "no binding (tested: 100 nM)"}
    ]}
  ]
}
